Measured values taken from US20200072831A1.

Legend:
[1] = biological target: DRB1*03:01 HLA Class II antigen loaded in vitro with biotinylated CLIP peptide (human); test: Luminex bead assay, Streptavidin-PE detection of biotinylated CLIP loaded on the antigen
[2] = biological target: DRB5*01:01 HLA Class II antigen (K cell line host) loaded in vitro with biotinylated CLIP peptide (human); test: as above
[3] = biological target: DRB5*01:01 HLA Class II antigen expressed in a K cell line host (K562), lacking a CLIP peptide in the peptide binding groove (human); test: Luminex bead assay, Streptavidin-PE detection of biotinylated CLIP; no-peptide control beads

DRB1*03:01 HLA Class II antigen loaded in vitro with biotinylated CLIP peptide (human), sequence (P04233 97-121 limits assumed, chain 3 of 3, other chains not shown): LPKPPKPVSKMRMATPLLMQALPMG

Work on “Anti-biotinylated CLIP (Streptavidin-PE, to detect the presence of the biotinylated CLIP) (from UniProt P22629 37-163)” yielded an MFI [1] of 2810 MFI, an MFI [2] of 4600 MFI and an MFI [3] of 840 MFI.
